Measurements as given in a protein production outcome set (Wang et al. 2014).

assay: label from the status in PepcDB records

| Sequence | protein production |
| --- | --- |
| MTNHQKRLAVPKSWPVERKEEAYTTKAAAGPHGEEGVPLLIVLRDVLGYVDSKKEARYALEQDSILINGTAVSDERRPVGMFDILAFDEREEYYRIFPDEGGRLSLTPIDEDAAGSKLGKIVGKTQVAGGDTQLSLHDGETLLVEDATAYDTNDSIVVSNDGEEIVAHFTYEEGALVTAVSGAHAGRIGTIDEIQVTPGSSANNVLIDAENDDERFETVEEYVVVIDENFTDGGDDE | failed |
| MTNKRVVQTFLATSALFLAMSGMSARAQDASAPAAGAPAPSAAAPMHHHGSGFKKLDTNGDGMVSRDEAKGHRWLEDHFDEIDTNHDGQISKDELAAWHKTHAGEMRGKMQARLDAKFKAADKNGDGALTREEMQAGLPKLARHFDEIDANHDGKVTEDEIRAFMKARHDAHRAQHGTPAAAVTPGGPSATKGE | failed |
| MTNLDEFLEELSSIESHSQKIVKIDEHLKKLDEETKEDEDEDAAKIIQDRSTAREAEIALLMDLRQNFLPPPSMSSSSLQPPSSSTLAPSSSSSLQPPAPLIDFFRSSVSYSHQPPSSSTLATSSSPSLQPPSMSSSSLQPPASLREFFTSSVSYSHQPSSSSTLATSSFFPSSMPYSVRPPDSSDRPSLREFFPSSPSSSIQPPESSSSKRARLSNIFPSPLSSSPSPFVNPFLRPQAQEPTIPNFINPIPQISPGLPALFPNPNPNPNPNPIPNPIRNPDLVWTNRLQLVFDDAVVRLGGLFSATPKAINELISEEGLTGDQIRSHLQVLRDRQKAIADKLALE | failed |
| MTNLKLFNFEGSKVRTVILDEEPFFVGIDVASILGYSNPQKAMRDHCKKPAESLVNDSLGRPRRTLVLSESDVYRLVLRSDLPSAEKFENWLMDEVLPSIRKHGAYMTDDTIEKAITDPDFLIRLATNLKEEKSKRLEAEQKIEAQRPKVLFADAVSDTEGTILIRDLAKLIQQNGVDIGEKRLFEWLRQNGYLISRRGTDYNRPTQKSMELGLFKIKETAIMRSSGAHTAITAKVTGKGQLYFVNKFLEQSLVAN | failed |
| MTNMFSLLYPLISIVIGVVPLFIFKRNAYLLGIAAASYFTAIILKEIIQLSFRSFFITPTLPTYLSYGILTAIFEPGFAYLYLVLTKAKVNGQLGLSYGSYLAFYENAIFLGLLSLPNYLLLSVQFSVLSLALYGLERISSFILHLFWGFSSALSASKKNIKYLSVSMPYGMVDSVAAYYQLSHNISLVSTEIISLVVSISCLPIIVLWYKMDKRNQRLD | failed |
| MTNPGDGAAGAADRATLDHWRPRLAAIAAAAGQDDAAHDLGHLRRVWDAARAMLQAHPEADALVVLAASYLHDLVNLPKNHPERHLASRQAAAAARERLARAGFPAARLDAVAHAIEAHSFSAGIAPRTIEARIVQDADRLDALGPVGLVRMFHVGGSLGRALAHPSDPLAAQRALDDSRYTLDHIEAKLARLPHGMQTEAGRRLGEQRLAWLRDFRAAFSAQWGGGQLRLEHHHHHH | failed |
| MTNTAAPATVSAGWADALLASFGQAGYAKAEPAILQPAEPFLDLSGEDIRKSLYLTTDAGGEELCLRPDLTIPVARDYLASSSAGKPAGFCYLGPVFRQRGGKRSEFLQAGIESFGRKDRAAADAEMLALALGATAAFGVAELDIRTGDVALFTALIDALDLYPVWRRRLIKDFNRKSDLAQDLEQLTLATATPRNEYEGVLAALAGSDRKAALALVTDLMSIAGASNVGGRSVAEIADRFLEQSTLKGGALPRDALDKIKRFLAISGSPGDALLQLRALAADAKLDIVAAIDEFEARIGFMAARGIDLSATRFSTSFGRGVDYYTGFEFELHRKDNGDEPLVAGGRYDGLLSQLGATAPIAAVGFSVWIEAFTDLAHPANSSAGSAT | failed |
| MTPAELISRLEEAWLNEKFSPELLENKSELVECVMEQLTHMEENLQRVRKGDLKASVHRMEIDRIRFVLSSFLRSRLKKIEKFFPHVLEKEKSRADGDPSFLSPEEFAFAKEYLANTEVYLRAVALKHMPPNLQSVDMMKAVPEPCLDSFVFLRVKEKQENILVEPETDEQREYVVDLDEGSQHLMRYRTIAPLVASGAVQLI | failed |
| MTPHPARSKISPYRDIEIFMDLEDWSARLKVFADATRVRLLALLEQEELTVAELSAITRLAQPRVSTHLAKLKEAGLVRDRRAGVSAYYRFDEVSLDPAQRALWLALSTGSDDPLLRQDAERVAAVLANRAADQNWADSVAGDMERHYSPGRTWEALARTALPLLETGDVLDIASGDGVLAELVAPHATRYICIDTSARVVAAASERLRKLRNVEVREGDMHALPFPDASFDLVVLMHALTYAAKPAQAVAESARVLRPGGRLLLCSLAKHEHRAAVQAYGHVNLGFAAKELRKFVEKAGLDVSNLESVTREKRPPHFEVISLIAMKPGIGNRESGLVEGKSNASRRANA | failed |
| MTPQIATILGLVIMFIVATALPINMGAVAFALAFIIGGVWVGLEGKEVLAGFPGDLFLTLVGITYLFAIAQKNGTIDLLVHWAVRAVRGRIVAIPWVMFVITGLLTAFGALGPAAVAIIGPVALRFAKQYRINPLMMGLLVIHGAQGGGFSPISVYGGITNKVVEKAGLDVSEMAVFLTSLGFNLMMAIICFCAFGGLKLMRRQELSLADAQYVAVAGDQASHRGFAIEGHGALVAPGGGTLSTDPLALEAVSITRDRVITLIGLLGLGVAALIYNLNVGLVSITVAVALALISPNAQKGAVDGISWSTVLLISGVVTYIAVLEKSGAVDYIGTGVSHIGMPLLGALLVCYVGGIVSAFASSAAVLGATIPLAVPFLMQGQLGAAGVICALAVSSTIVDVSPFSTNGALVVASAAKEERDGLFRRFLIYSGLVVLLGPLAAWLVFVVPGWL | failed |
| MTPRRHDNDYERRKWRQVAGHFGMGAAFGALFAGIVLFNNYFGLSSVIATSEAPTLVRIIFVVGVAGSFAFMAAITGFLFLVHED | failed |
| MTQAASAAPQSAHSAKWKWAKRAFTAFFFIAVPVLLFMLVKNLDWQEVKKALASYKASTLAIAAVVAFASYATYCGFDILARYYTRHKLSIKQIVPVTFVCYAFNLNLSSWVGGIALRYRLYSRLGLEVSTITRILSLSLITNWLGYMLLAGFVFSMRFLELPEEWSIGTTTLQLIGFGLLAVCFSYLLACRFSKKRSWTIRDQEFNLPSMKQALMQASLGALNWALMAAVIYTLLPDKAFYPAILGVLLISSIAGVITHIPAGLGVLETVFITLLSHQFSKGSLLAALIGYRAIYFLLPLMIALVVYLVLEKRAKKMGEKNQRRMGQEANS | failed |
| MTQGTARAQQNNIPVGIALMLAATVVFALQDGISRHLASSYNTYMVVMIRYWFFAAFVIALAARSRGGLRAATRTAQPGLQIFRGLLLASEICVAVFAFTVLGLIESMAVFICYPLLVAALSGPVLGEKVGWRRWAAIGVGLVGVLIILQPGMGVFNPWAVVPLISALMFALYGLLTRYAARQDSTATSFFWTGVTGAVAMTAVGLWFWEPMSAPDWRWMALLCVSGALGHWLLIKCYEMAEASAVQPFAYFHLMWTAILGITVFGETLRSAVIIGAALIVAAGLFTLWRERAQSRSR | failed |
| MTQHRLNTSQWFGLLGWLVLCYAVAALGAMASIQAASFYAQLQRPAWAPPGWLFGSVWTVLYGMMAVSVWSVWRRGGWAGARVALTLFLVQLALNGLWSWLFFAWHLGAWAFTDIVALWLVLAATIGVFAKRQALAAWLLVPYLAWVSFAAALNFSVWQLNLQMLG | failed |
| MTQHYLRSAAYRDFSIHSIYGMSDDDIHAMFARLRWSSDSHQACPACGAWAQHYRRPARQQWRCKECGRDFSVTSATAFSSRKKSLRSILLATFYYVTGVKGLAGLGLSRMGDYSNKAAHVALGKLREAIFRTQDFTPLTGVVEIDGGYFGGKPRKPNRRGLRNDQAIVDRIAGRPAKRPWHASGMTRTNWEKRKNKRVVMIFRQQGRPGEGAVRSIAAVARSENDKDAAKLIARYVSSEAIIMTDESPAYATVSATHTHYAVRHSHEYVSAEGVNENQAESFFSRLRRWEYGVSHGVRPAYLADYANEMAWREDVRRFSIRTQVEMLLIKALTVGHSRWWRGYYQGKRRGTEILMNQGIPPSSASGASAQ | failed |
| MTQKEISIIHPRPSSIVAALYTLRDLNVDVAILHGPPGCSFKHARLLEEDGIHVVTTGLDENGFVFGGHDKLVQVINKSIELFNPKILGVVGTCASMIIGEEMHEAVLEANPDIPVIEVEVHAGYHNNTKGVIFALESALDAGIIDHKEFERQEYLEHHHHHH | not failed |
| MTQLFPGPIVRTPGLAELDARARDIFRRVVESYLETGEPVGSRTISKGGVALSPASIRNTMQDLAQLGLLDAPHTSAGRMPTHAGLRMFVDGFLEVGDVAEQEKRAIEARLAVKGRSFEEALAEASSILSGLAGGAGIVVTPVREGGVKHVEFVPLGGGQVLAVMVFEDGQVENRLMRQAPGVTPSALQEASNFLNARLRGRTLTEARTEMGGELDAARRQLNETAARLVEDGLAAWSGGEGDARSLIVRGQANLLADARAREDIDRVRQLFDDLSRRAQLIGLLDDVRDAEGVRIYIGAETRLFSLSGSSVIAAPYMTGRQKVLGAIGVIGPARLNYARVIPLVDYTARVLGRMMDG | failed |
| MTQLIKSLPGWLKLMLIFPIFFLNGVLLSLIINRFRELFDYIIIATLVTFLLKLTINFLVSKGIGKRLAIFAVITISFALIALGGITLIPLMGNQLGNLSQDIPRWLSGSQEHLANLKNSTLFLTLDNAGVNVDDLFQKAYLTLSKELDRIGQISLKVLTETIGGVVDTLVILVLTIFLLVGGDTFWQGILSWLPSPWEKKIPQYAGEIFRDYFISRLILAAGSSMARLVVFMALGIPYSILFAFSLGLASLIPFAGAVVTLIGTLVLLLKGWVVAVKFFVSAIVIDQITDNGVAPKLMGDKIGLNPVWILISIFIGAEIAGLLGVLLAVPIASVIKKVIDDMRAGKTENEEIDTEEQVEVLPESLA | failed |
| MTQNNILLISGAILPVIITVIIGYISGKRKDFNWQQAGDINKIVMLYALPLSIFSNMVMTPRHIVMTMGPVAVAIILALILSFVIPLLVARYLFRRDLALSTLQALAIGSPAVPFIGTSVLAFLFGTVSASLITVSSITQNVFQLPLVMILMSVATGDKSQHISFGARVVNAIKQPVVWSPVIALIIVLADIHIPQTISMSLGLLGKASGGLALFAAGIVLYTRSIVITTATIITVIARNILVPGACYLILLKMGFSMEQIKEVVLTMAIPVGSIAIIIAMQYKTGEQEMASTMALSIIASIITMGGFIFLTF | failed |
| MTQQLNHAKVNQHPGQATLPETAEGQVRTYEVKTYGCQMNVHDSERLSGLLEEAGYVAAPEDTTPDLVVFNTCAVRENADMRLYGTLGNLRSVKEKNPGMQIAVGGCLAQKDKDTVVKKAPWVDVVFGTHNIGSLPTLLQRAEHNAQAEVEIVDSLEQFPSVLSAKRESAYAGWVSVSVGCNNTCTFCIVPSLRGKEQDRRPGDILAEVQALVDQGVTEVTLLGQNVNAYGVNFVDPELERDRSAFSKLLRACGEIEGLERVRFTSPHPAEFTSDVIDAMAETPNICPQLHMPLQSGSDKVLKEMRRSYRSKKFLSILDEVRAKIPHASITTDIIVGFPGETEEDFQATLDVVKKARFTSAYTFQYSPRPGTPAAEYENQLPKEVVQERYERLMVVQEQVCEEENQKLIGTTVELLVQAGGGRKNDATKRMSGRARDGRLVHFAPEGDIDGEIRPGDFVTVTVTEAKPFFLIADSGVQTHRRTKAGDNSAVGQVPTTAPIGVGLGLPQIGAPKVAPATESACCSIN | failed |
| MTQRSLADIQFQTTLEGVTPAQLGGFFEGWPNPPTPETLWRILDRAAVFVLARTPDGQVIGFVNALSDGILAASIPLLEVQAGWRSLGLGSELMRRVLTELGDLYMVDLSCDDDVVPFYERLGLKRANAMFLRRYDNQAGIPAE | not failed |
